Reference: PMC10563435, “Anti-GARP Antibodies Inhibit Release of TGF-β by Regulatory T Cells via Different Modes of Action, but Do Not Influence Their Function In Vitro” (ImmunoHorizons, 2023)

Experiments:
Settings in all cases: both partners purified
[1] = target: T1, GARP extracellular domain (aa 20-627), Fc-His part cleaved off (UniProt Q14392); test: BLI; Abs (10 µg/ml) captured for 180 s on AMC or AHC (anti-murine or anti-human IgG Fc capture) tips; 10 µg/ml GARP, GARP/L-TGF-β or L-TGF-β in solution for 180 s, 600 s dissociation; PBS
T1 construct: GARP (LRRC32) extracellular domain, aa 20-627; also called LRRC32; GARP-Fc-His; source: HEK293-E6, transiently transfected, purified from supernatant (Ni-NTA, SEC; Fc-His removed with papain and protein A beads); not shown: Fc (human IgG1), C-terminal, cleaved; His tag, C-terminal, cleaved
T1 sequence (Q14392 20-627): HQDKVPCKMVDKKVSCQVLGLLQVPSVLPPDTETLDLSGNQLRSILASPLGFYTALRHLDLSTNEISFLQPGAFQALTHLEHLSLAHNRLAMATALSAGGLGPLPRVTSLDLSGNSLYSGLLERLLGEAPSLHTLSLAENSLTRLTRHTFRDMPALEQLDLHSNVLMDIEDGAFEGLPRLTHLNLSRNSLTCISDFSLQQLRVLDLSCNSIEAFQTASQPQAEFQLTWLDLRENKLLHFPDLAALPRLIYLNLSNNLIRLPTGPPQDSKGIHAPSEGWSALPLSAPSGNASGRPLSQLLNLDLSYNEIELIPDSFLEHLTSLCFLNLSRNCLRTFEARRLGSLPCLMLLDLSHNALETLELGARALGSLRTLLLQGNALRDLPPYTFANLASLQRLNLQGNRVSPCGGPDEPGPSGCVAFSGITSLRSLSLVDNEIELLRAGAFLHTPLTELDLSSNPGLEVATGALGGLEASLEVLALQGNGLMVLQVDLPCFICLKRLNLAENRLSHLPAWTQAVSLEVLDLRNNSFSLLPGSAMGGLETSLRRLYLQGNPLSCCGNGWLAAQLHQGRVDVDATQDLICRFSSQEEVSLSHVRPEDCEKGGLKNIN

[2] = target: T2, His-L-TGF-β1 (N-terminal His tag followed by aa 30-390 of L-TGF-β1) (Homo sapiens (deposit 8C7H), UniProt P01137); test: as above
T2 construct: latent TGF-β1 (LAP and mature TGF-β), aa 30-390; The introduction says that the proprotein is cleaved by a furin-like convertase into LAP and mTGF-β, which stay noncovalently associated; also called latent form of TGF-β; source: HEK293-E6, transiently transfected, purified from supernatant (Ni-NTA, SEC)
T2 sequence (P01137 30-390): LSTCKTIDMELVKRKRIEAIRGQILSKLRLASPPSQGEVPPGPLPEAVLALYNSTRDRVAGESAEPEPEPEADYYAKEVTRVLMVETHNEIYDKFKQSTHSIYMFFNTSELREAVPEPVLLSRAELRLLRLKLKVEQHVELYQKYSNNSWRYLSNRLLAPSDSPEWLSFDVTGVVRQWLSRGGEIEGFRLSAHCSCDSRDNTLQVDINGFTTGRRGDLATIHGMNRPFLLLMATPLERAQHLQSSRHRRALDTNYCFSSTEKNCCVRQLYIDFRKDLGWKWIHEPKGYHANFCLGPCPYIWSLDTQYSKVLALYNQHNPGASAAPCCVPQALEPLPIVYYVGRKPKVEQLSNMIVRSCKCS

[3] = target: T3, L-TGF-β1 (aa 30-390), as it stands in the GARP/L-TGF-β complex (UniProt P01137); test: cryo-EM structure; GARP/L-TGF-β incubated 30 min at 4°C with an excess of Fab, complex purified by SEC in 15 mM HEPES (pH 7.5), 100 mM NaCl; LHG-10 map 2.7 Å with atomic model; 28G11 map 7.5 Å with docked models of PDB 6GFF
T3 construct: latent TGF-β1 (LAP and mature TGF-β), aa 30-390; Untagged construct, used only within the complex m3; The introduction says it is cleaved into LAP and mTGF-β; also called LAP and mTGF-β; source: HEK293-E6, transiently transfected, purified as the complex with GARP
T3 sequence (P01137 30-390, one chain of several): as the sequence (P01137 30-390) above

[4] = target: T4, GARP/L-TGF-β complex (recombinant) (Homo sapiens (deposit 8C7H), UniProt Q14392;P01137); test: as above
T4 construct: GARP (LRRC32) extracellular domain, aa 20-627; latent TGF-β1 (LAP and mature TGF-β), aa 30-390; The introduction says that L-TGF-β is linked to GARP by two disulfide bonds and is cleaved into LAP and mTGF-β; also called L-TGF-β/GARP complex; GARP-Fc-His/L-TGF-β; source: HEK293-E6, transiently transfected, purified from supernatant (Ni-NTA, SEC; Fc-His removed with papain and protein A beads); not …

[5] = target: T4, GARP/L-TGF-β complex (recombinant); test: BLI; Abs (10 µg/ml) captured for 180 s on AMC or AHC (anti-murine or anti-human IgG Fc capture) tips; 10 µg/ml GARP, GARP/L-TGF-β or L-TGF-β in solution for 180 s, 600 s dissociation; PBS

B1: 28G11 (anti-L-TGF-β / anti-LAP Ab), full-length antibody (antibody, V domains shown)
VH: EVKLVESGGGLVQPGGSLSLSCAASGFTFTDYYMSWVRQPPGKALEWLGFIRNKPNGYTTEYSASVKGRFTISRDNSQSILYLQMNVLRAEDSATYYCARYTGGGYFDYWGQGTTLTVSS
VL: DIQMTQTTSSLSASLGDRLTISCRASQDISNYLNWYQQKPDGTVKLLIYYTSRLHSGVPSRFSGSGSGTDYSLTISNLEQADIATYFCQQGDTLPWTFGGGTKLEIK
notes: A cryo-EM map of its Fab complex is deposited in EMDB, without coordinates; source: HEK293-E6, transiently transfected, purified (protein A MabSelect SuRe)
Does B1 bind [1]?
Result: no binding (tested: 10 µg/ml)

Does B1 bind [2]?
Result: binds

B2: Fab 28G11 (Fab, V domains shown)
VH: B1 VH
VL: B1 VL
notes: Fab part of the heavy chain of m5; The cryo-EM map is deposited in EMDB, without coordinates; As the light chain of m5; source: HEK293-E6 antibody cleaved with immobilized papain, Fc removed with protein A beads
Does B2 bind [3]?
Result: binds

What about the “stoichiometry N” value [4] of the same binder?
Its value is 1.

B3: MHG-8 (anti-L-TGF-β/GARP Ab), full-length antibody (antibody, V domains shown)
VH: QVQLKESGPGLVAPSQSLSITCTVSGFSLTGYGINWVRQPPGKGLEWLGMIWSDGSTDYNSVLTSRLRISKDNSNSQVFLKMNSLQVDDTARYYCARDRNYYDYDGAMDYWGQGTSVTVSS
VL: DIQVTQSSSYLSVSLGDRVTITCKASDHIKNWLAWYQQKPGIAPRLLVSGATSLEAGVPSRFSGSGSGKNFTLSITSLQTEDVATYYCQQYWSTPWTFGGGTTLEIR
notes: source: HEK293-E6, transiently transfected, purified (protein A MabSelect SuRe)
Does B3 bind [1]?
Result: no binding (tested: 10 µg/ml)

Does B3 bind [5]?
Result: binds

Does B3 bind [2]?
Result: no binding (tested: 10 µg/ml)

B4: LHG-10 (anti-L-TGF-β/GARP Ab), full-length antibody (antibody, V domains shown)
VH: EVQLVQPGAELRNSGASVKVSCKASGYRFTSYYIDWVRQAPGQGLEWMGRIDPEDGGTKYAQKFQGRVTFTADTSTSTAYVELSSLRSEDTAVYYCARNEWETVVVGDLMYEYEYWGQGTQVTVSS
VL: DIQMTQSPSSLSASLGDRVTITCQASQSISSYLAWYQQKPGQAPNILIYGASRLKTGVPSRFSGSGSGTSFTLTISGLEAEDAGTYYCQQYASVPVTFGQGTKVELK
notes: as for B3
Does B4 bind [1]?
Result: no binding (tested: 10 µg/ml)

Does B4 bind [5]?
Result: binds

Does B4 bind [2]?
Result: no binding (tested: 10 µg/ml)

B5: Fab LHG-10 (Fab, V domains shown)
VH: B4 VH
VL: B4 VL
notes: Fab part of the heavy chain of m8; As the light chain of m8; source: HEK293-E6 antibody cleaved with immobilized papain, Fc removed with protein A beads
Does B5 bind [4]?
Result: binds
